Assay results: patent US5484732, “Transcription factor for regulation of the development of skin and hair” (The Regents of the University of California, dated 1996)

Target: the molecule itself
Assay: DSS crosslinking in solution of 35S-labelled protein translated in vitro, SDS/polyacrylamide gel (self-association)
Method: With respect to (1), the effect of the Skn-1i inhibitory region on dimerization in solution was assayed by the ability of a homobifunctional crosslinking agent [disuccnidyl suberate (DSS)] to crosslink in vitro translated proteins.
Specifically, approximately 100,000 cpm of ^35S-labeled Skn-1i, Δ32Skn-1i, 1–99 (N/T) Skn1-i and Δ60 (N/T) Skn1-i proteins were added separately to […] of binding buffer (10 mM HEPES [pH7.8], 50 mM K CI, 5% glycerol). After 15 minutes at room temperature, […] of DSS (suspended in 5 mg/ml DMSO) or DMSO alone was added to each of the reactions. After 5 minutes, the reaction was stopped by adding SDS sample buffer to each which was then boiled prior to analyses on SDS/polyacrylamide gels. To quantitate crosslinking efficiency, monomers ("M" on FIG. 12) and dimers ("D" on FIG. 12) were excised from the gel and counted by scintillation counting.

B1: Δ32 Skn-1i (other)
chain: LQPNLLSFPQQQSTLLLPQTGPGLTSQAVGRPGLSGSSLEPHLEASQHLPGPKHLPGPGGNDEPTDLEELEKFAKTFKQRRIKLGFTQGDVGLAMGKLYGNDFSQTTISRFEALNLSFKNMCKLKPLLEKWLNDAESSPADPSASTPSSYPTLSEVFGRKRKKRTSIETNIRLTLEKRFQDNPKPSSEEISMIAEQLSMEKEVVRVWFCNRRQKEKRINCPVATPVKPPIYNSRLVSPSGSLGSLSVPPVHSTMPGTVTSSCSPGNNSRPSSPGSGLHASSPTASQNNSKAAMNPSSAAFNSSGSWYRWNHPAYLH
B1: no binding.
